This is an account of results in US20110305634A1.

The target of assay [1] is Recombinant human DSG2 protein (desmoglein 2) (human) (UniProt Q14126). Kind of assay: SPR, DSG2 immobilized; summary table of FIG. 13B. A general note: In SPR one partner is held on a chip, and binding of the other changes the refractive index at the surface.
For assay [2] the target is unchanged. In words: SPR, DSG2 immobilised, Ad3-K/S/Kn injected at 10 mg/ml (so in the source).
The target is the same in assay [3]. Kind of assay: SPR, DSG2 immobilized; summary table of FIG. 13B (no unit in the table, RU from the axis of 13B).
Assay [4] addresses Desmoglein 2 (DSG2) of human cells (human) (UniProt Q14126). In words: competition of 3H-Ad3 attachment to HeLa cells after pre-incubation with the named protein; the number is the Ad3 still bound (PBS: 512).
The target is the same in assay [5].
For assay [6] the target is unchanged. Kind of assay: cell-based or functional assay.
Assay [7] has the same target. This is another data set of the same source.
Assay [8] has the same target. This is another data set of the same source.
Assay [9] shares this target. The source holds these as a separate data set.
Assay [10] deals with Recombinant human DSG2 protein (desmoglein 2) (human) (UniProt Q14126). Kind of assay: SPR, DSG2 immobilised, PtDd injected at 3 mg/ml (so in the source).
For assay [11] the target is unchanged. Kind of assay: SPR (BIAcore 3000), recombinant human DSG2 immobilised on CM4 chip, PtDd injected.
For assay [12], the target named is Ad5/3L-GFP chimeric adenovirus vector (human adenovirus serotype 5; human adenovirus serotype 3) (UniProt P11818).

Read-outs that look alike come from different tables or passages of the source.

Sequence of Desmoglein 2 (DSG2) of human cells (human) (Q14126 50-1118): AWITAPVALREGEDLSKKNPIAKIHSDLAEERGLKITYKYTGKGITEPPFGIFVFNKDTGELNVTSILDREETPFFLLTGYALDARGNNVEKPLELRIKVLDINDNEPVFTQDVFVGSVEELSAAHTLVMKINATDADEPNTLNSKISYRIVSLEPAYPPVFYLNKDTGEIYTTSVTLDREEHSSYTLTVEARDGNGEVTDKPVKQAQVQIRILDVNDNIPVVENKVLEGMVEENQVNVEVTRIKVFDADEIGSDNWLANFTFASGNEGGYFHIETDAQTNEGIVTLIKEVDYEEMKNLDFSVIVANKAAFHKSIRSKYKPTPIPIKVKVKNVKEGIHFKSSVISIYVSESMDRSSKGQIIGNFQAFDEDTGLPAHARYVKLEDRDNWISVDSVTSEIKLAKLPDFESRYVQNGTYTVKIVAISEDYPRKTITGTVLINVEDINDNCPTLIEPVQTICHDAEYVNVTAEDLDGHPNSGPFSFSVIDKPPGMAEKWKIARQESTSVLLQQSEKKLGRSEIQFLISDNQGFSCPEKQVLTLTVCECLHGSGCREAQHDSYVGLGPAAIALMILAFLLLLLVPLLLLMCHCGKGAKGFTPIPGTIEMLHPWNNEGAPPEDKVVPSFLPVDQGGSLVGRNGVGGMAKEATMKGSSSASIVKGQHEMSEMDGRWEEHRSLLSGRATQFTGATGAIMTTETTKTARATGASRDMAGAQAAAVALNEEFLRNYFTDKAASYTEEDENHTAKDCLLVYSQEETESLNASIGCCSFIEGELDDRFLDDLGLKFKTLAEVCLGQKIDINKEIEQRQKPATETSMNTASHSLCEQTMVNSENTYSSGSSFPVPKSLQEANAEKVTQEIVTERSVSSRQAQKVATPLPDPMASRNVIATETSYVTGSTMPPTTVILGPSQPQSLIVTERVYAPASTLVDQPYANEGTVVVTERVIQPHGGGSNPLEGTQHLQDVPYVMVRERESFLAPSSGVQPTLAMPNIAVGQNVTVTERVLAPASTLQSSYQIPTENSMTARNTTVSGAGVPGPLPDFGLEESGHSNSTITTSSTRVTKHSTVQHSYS
Sequence of Recombinant human DSG2 protein (desmoglein 2) (human) (Q14126 50-609 limits assumed): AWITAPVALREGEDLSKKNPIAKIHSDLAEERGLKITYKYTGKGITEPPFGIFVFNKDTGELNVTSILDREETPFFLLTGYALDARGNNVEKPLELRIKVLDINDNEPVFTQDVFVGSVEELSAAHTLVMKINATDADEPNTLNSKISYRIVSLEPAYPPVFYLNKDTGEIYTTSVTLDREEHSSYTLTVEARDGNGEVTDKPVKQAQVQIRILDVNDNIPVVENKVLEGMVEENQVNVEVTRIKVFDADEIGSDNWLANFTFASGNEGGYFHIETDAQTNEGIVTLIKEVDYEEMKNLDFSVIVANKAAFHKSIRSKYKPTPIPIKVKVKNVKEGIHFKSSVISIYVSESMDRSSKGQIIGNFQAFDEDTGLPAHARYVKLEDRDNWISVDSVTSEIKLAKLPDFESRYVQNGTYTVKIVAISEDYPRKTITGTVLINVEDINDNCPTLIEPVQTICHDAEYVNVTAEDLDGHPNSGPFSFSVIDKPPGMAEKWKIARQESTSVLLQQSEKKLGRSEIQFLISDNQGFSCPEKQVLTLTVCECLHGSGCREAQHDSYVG
Sequence of Recombinant human DSG2 protein (desmoglein 2) (Q14126 50-609 limits assumed): as above

As for “Ad3-K/S/Kn, junction opener 1 (JO-1) (ligand; other documents disagree on this pair)”, in [1], the % of remaining binding after 150s is 85.9%. Besides, in [2], the SPR response was 100 RU. For the same substance, in assay [3], the Binding at the end of association was found to be 113 RU and the Remaining binding after 150s dissociation was 96.9 RU.
Recombinant Ad3 base dodecahedra (BsDd) showed a Bound 3H-Ad3 VP/cell (with this competitor) in [4] of 556 VP/cell.
The substance “Recombinant Ad3 penton-dodecahedra (PtDd)” had an IC50 (read off the curve), Ad3-GFP transduction of HeLa cells (% of GFP+ cells) in [5] of 2 µg/mL. The substance also had a Bound 3H-Ad3 VP/cell (with this competitor) in [4] of 12 VP/cell. The Herceptin cytotoxicity on BT474 cells (WST-1 viability) in assay [6] was 2 fold. Moreover, in assay [7], the IC50 (read off the curve), Ad3-GFP infection of HeLa cells (% of GFP+ cells) is 0.7 µg/mL. For the same substance, in assay [8], the IC50 (read off the curve), Ad3-GFP transduction of HeLa cells (GFP MFI) came to 0.2 µg/mL; the IC50 (read off the curve), Ad5/3L-GFP transduction of HeLa cells (GFP MFI) is 0.5 µg/mL; the IC50 (read off the curve), Ad5/3S-GFP transduction of HeLa cells (GFP MFI) was found to be 0.2 µg/mL. Besides, the % of remaining binding after 150s in assay [1] was 98%. Besides, in [3], the Binding at the end of association stood at 133 RU and the Remaining binding after 150s dissociation is 130 RU. Also, the IC50 (read off the curve), Ad3-GFP transduction of HeLa cells (% of GFP+ cells) in assay [9] came out at 1 µg/mL. In addition, in [10], the SPR response is 100 RU. Moreover, in assay [11], the dissociation constant (Kd) was found to be 2.5 nM.
With “Recombinant human DSG2 protein (desmoglein 2) (from UniProt Q14126 50-609) (receptor)”, in [12], the IC50 (read off the curve), Ad5/3L-GFP transduction of HeLa cells (GFP MFI) amounted to 1 µg/mL.

As usually defined, the Kd is a measure of binding affinity in units of concentration.
